These results are taken from the nanobody polyreactivity screen of Harvey et al. (2022).

The data set in a line: yeast display, Sf9 membrane polyspecificity reagent, FACS + sequencing; frameworks hold sequencing errors. The method, boiled down: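 Synthetic nanobody libraries on Saccharomyces cerevisiae BJ5465 were galactose-induced for 36–48 hours, stained 1 hour at 4 °C with 10% biotinylated, detergent-solubilized Sf9 membrane reagent and enriched on streptavidin microbeads. FACS then separated cells into low and high (top ~1%) gates by anti-HA (expression) and streptavidin (reagent binding) fluorescence. Genes were colony-PCR amplified, MiSeq 2 × 250 sequenced and CDR-length filtered. A clone's polyreactivity label is that of its gate of origin.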
In the case of “QVQLVESGGGLVQAGGSLRLSCAASGSIFFLYAMGWYRQAPGKERELVAAISRDGRTNYADSVKGRFTISRDNAKYTVYLQMKSLKPEDTAVYYGAKDGNHPGAVGYGYWGQGTQVTVSS”, the “polyreactivity (PSR sort gate)” value is “low polyreactivity”.

As to “QVQLVESGGGLVQAGGSLRLSCAASGSIFFPNPLGWYRQAPGKERELVDAISWSGDSSYADSVKGRFTISRDNAKNTVYLQMNSLKPEDTAVYYCAAVYLWWSYEFDYWGQGTQVTVSS”, the “polyreactivity (PSR sort gate)” value is “low polyreactivity”.

For the sequence “QVQLVESGGGLVQAGGSLRLSCAASGSIFFPYTMGWYRQAPGKERELVARISLGGGRTYYADSVKGRFTISRDNAKNTVYLQMNSLKPEDTAVYYCNRGGWYAYYWGQGTQVTVSS”, the “polyreactivity (PSR sort gate)” value is listed as “high polyreactivity”.

Take “QVQLVESGGGLVQAGGSLRLSCAASGSIFFPYVMGWYRQAPGKERELVAAITYRAGSTYYADSVKGRFTISRDNAKNTVYLQMNSLKPEDTAVYYCAAVVSRSGEFGYWGQGTQVTVSS”: the “polyreactivity (PSR sort gate)” value was “low polyreactivity”.

On to “QVQLVESGGGLVQAGGSLRLSCAASGSIFFRNAMGWYRQAPGKERELVASITSGGSTYYADSVKGRFTISRDNAKNTVYLLMNSLKPEDTAVFYCAARLWHLSYAGQGGDYWGQGTQVTVSS”, for which the “polyreactivity (PSR sort gate)” value is “low polyreactivity”.

On to “QVQLVESGGGLVQAGGSLRLSCAASGSIFFRYAMGWYRPAPGKERELVAAISSDGSTYYADSVKGRFTISRDNAKNTVYLQMNSLKPEDTAVYYCNAEQAIFYWYATVTYDYWGQGTQVTVSS”, for which the “polyreactivity (PSR sort gate)” value is “low polyreactivity”.

As for “QVQLVESGGGLVQAGGSLRLSCAASGSIFFSNAMGWYRQAPGKEREFVATITSSGVGTYYADSVKGRFTISRDNAKNTVYLQMNSLKPEDTAVDYCDADYNSQEDYWGQGTQVTVSS”, the “polyreactivity (PSR sort gate)” value is given as “low polyreactivity”.

As for “QVQLVESGGGLVQAGGSLRLSCAASGSIFFSYAMGWYRQAPGKERELVAAITSSVDSTYYADSVKGRFTISRDNAKNTVYLQMNSLKPEDTAVYYCDARYRSGYYRYDYWGQGTQVTVSS”, the “polyreactivity (PSR sort gate)” value was “low polyreactivity”.

As to “QVQLVESGGGLVQAGGSLRLSCAASGSIFFSYAMGWYRQAPGKERELVAGINWSGGSTYADSVKGRFTISRDNAKNPVYLQMNSLTPEDTAVYYCAAKYYSERSRYHYWGQGTQVTVSS”, the “polyreactivity (PSR sort gate)” value was “low polyreactivity”.

Regarding “QVQLVESGGGLVQAGGSLRLSCAASGSIFFSYAMGWYRQAPGKERELVAGINWSGGSTYADSVKGRFTISRDNAKNTVYLQMNSLKPEDTAVYYCAAKYYSERSRYHYWGQGTQVTVSS”, the “polyreactivity (PSR sort gate)” value is “low polyreactivity”.

Turning to “QVQLVESGGGLVQAGGSLRLSCAASGSIFFTNVMGWYRQAPGKEREFVAAITGGGGSTYYADSVKGRFTISRDNAKNTVYLQMNSLKPEDTAVYYCATKAKPRSGYNYWGQGTQVTVSS”, the “polyreactivity (PSR sort gate)” value was “low polyreactivity”.

In the case of “QVQLVESGGGLVQAGGSLRLSCAASGSIFFTYAMGWYRQAPGKERELVAVISSNGARTYYADSVKGRFTISRDNAKNTVYLQMNSLKPEDPAVYYCAARSQGNYGWGQGTQVTVSS”, the “polyreactivity (PSR sort gate)” value is “high polyreactivity”.

With “QVQLVESGGGLVQAGGSLRLSCAASGSIFFVNAMGWYRQAPGKERELVAAITSGGNTNYADSVKGRFTISRDNAKNTVYFQMNSLKPEDTAVFYSATSYYLAYRSITTYDYWGQGTQVTVSS”, the “polyreactivity (PSR sort gate)” value was “low polyreactivity”.

Take “QVQLVESGGGLVQAGGSLRLSCAASGSIFFWYTMGWYREAPGKERELVATITGSGSSTTYADSVKGRFTISRDNAKNTVYLQMNSLKPEDTAVYYCAAADIIDHSFPYDYWGQGTQVTVSS”: the “polyreactivity (PSR sort gate)” value was “low polyreactivity”.

Consider “QVQLVESGGGLVQAGGSLRLSCAASGSIFFYAMGWYRQAPGKERELVAGITSGGSTYYADSVKGRFTISRDNAKNTVYLQMNSLKPEDTAVYYCAARRRGYKYTYNSWGQGTQVTVSS”, for which the “polyreactivity (PSR sort gate)” value is on record as “high polyreactivity”.

As to “QVQLVESGGGLVQAGGSLRLSCAASGSIFFYNAMGWYRQAPGKERELVAAISRGGNTNYADSVKGRFTISRDNAKNTVNLQLNSLKPEDTAVYYCNADYSFWATPYWEYGYDYWGQGTQVTVTS”, the “polyreactivity (PSR sort gate)” value was “low polyreactivity”.
